Assay results: the RNAGym collection of RNA variant scans (doi:10.7554/elife.80360)

B1: HDV Ribozyme (parent)
chain: GGCCGGCAUGGUCCCAGCCUCCUCGCUGGCGCCGGCUGGGCAACAUUCCGAGGGGACCGUCCCCUCGGUAAUGGCGAAUGGGACCCA

Variants of: B1
Assay: self-cleavage, relative activity (ratio to wild type); higher = more cleavage; co-transcriptional

Variant	self-cleavage
GGCCGGCAUGGUCCCAGCCUCCUCGCUGGCGCCGGCUGGGCAACAUUCCGAGGGGACCGUCCCCUCCGUAAUGGCGGAUGGGACCCA	0.508
GGCCGGCAUGGUCCCAGCCUCCUCGCUGGCGCCGGCUGGGCAACAUUCCGAGGGGACCGUCCCCUCAGUAAUGGCAAAUGGGACCCA	0.975
GGCCGGCAUGGUCCCAGCCUCCUCGCUGGCGCCGGCUGGGCAACAUUCCGAGGGGACCGUCCCCUGGGUAAUGGCGAAGGGGACCCA	0.772
GGCCGGCAUGGUCCCAGCCUCCUCGCUGGCGCCGGCUGGGCAACAUUCCGAGGGGACCGUCCCCUUGGAAAUGGCGAAUGGGACCCA	0.831
GGCCGGCAUGGUCCCAGCCUCCUCGCUGGCGCCGGCUGGGCAACAUUCCGAGGGGACCGUCCCCUUGGCAAUGGCGAAUGGGACCCA	0.92
GGCCGGCAUGGUCCCAGCCUCCUCGCUGGCGCCGGCUGGGCAACAUUCCGAGGGGACCGUCCCCUCCGUAAUGUCGAAUGGGACCCA	0.332
GGCCGGCAUGGUCCCAGCCUCCUCGCUGGCGCCGGCUGGGCAACAUUCCGAGGGGACCGUCCCCUCCGUAAUGACGAAUGGGACCCA	0.415
GGCCGGCAUGGUCCCAGCCUCCUCGCUGGCGCCGGCUGGGCAACAUUCCGAGGGGACCGUCCCCUUGGUAAUGGCGAAAGGGACCCA	0.869
GGCCGGCAUGGUCCCAGCCUCCUCGCUGGCGCCGGCUGGGCAACAUUCCGAGGGGACCGUCCCCUUGGUAAUGGCGAAGGGGACCCA	0.453
GGCCGGCAUGGUCCCAGCCUCCUCGCUGGCGCCGGCUGGGCAACAUUCCGAGGGGACCGUCCCCUCAGUGAUGGCGAAUGGGACCCA	0.712
GGCCGGCAUGGUCCCAGCCUCCUCGCUGGCGCCGGCUGGGCAACAUUCCGAGGGGACCGUCCCCUCAGUAAUGGCGAUUGGGACCCA	0.234
GGCCGGCAUGGUCCCAGCCUCCUCGCUGGCGCCGGCUGGGCAACAUUCCGAGGGGACCGUCCCCUCAGUAAUGGCGACUGGGACCCA	0.0963
GGCCGGCAUGGUCCCAGCCUCCUCGCUGGCGCCGGCUGGGCAACAUUCCGAGGGGACCGUCCCCUCAGUAAUGGCGAGUGGGACCCA	0.604
GGCCGGCAUGGUCCCAGCCUCCUCGCUGGCGCCGGCUGGGCAACAUUCCGAGGGGACCGUCCCCUGGGUAAUGGCGAAUGGUACCCA	0.485
GGCCGGCAUGGUCCCAGCCUCCUCGCUGGCGCCGGCUGGGCAACAUUCCGAGGGGACCGUCCCCUGGGUAAUGGCGAAUGGCACCCA	0.0959
GGCCGGCAUGGUCCCAGCCUCCUCGCUGGCGCCGGCUGGGCAACAUUCCGAGGGGACCGUCCCCUCCGUAAUGGCCAAUGGGACCCA	1.09
GGCCGGCAUGGUCCCAGCCUCCUCGCUGGCGCCGGCUGGGCAACAUUCCGAGGGGACCGUCCCCUCCGUAAUGGCGAAUGGGACCCG	0.961
GGCCGGCAUGGUCCCAGCCUCCUCGCUGGCGCCGGCUGGGCAACAUUCCGAGGGGACCGUCCCCUGGGUAAUGCCGAAUGGGACCCA	0.199
GGCCGGCAUGGUCCCAGCCUCCUCGCUGGCGCCGGCUGGGCAACAUUCCGAGGGGACCGUCCCCUCCGUAAUGGCGAAUGGGACUCA	0.92
GGCCGGCAUGGUCCCAGCCUCCUCGCUGGCGCCGGCUGGGCAACAUUCCGAGGGGACCGUCCCCUUGGUAAUGGCGUAUGGGACCCA	0.501
GGCCGGCAUGGUCCCAGCCUCCUCGCUGGCGCCGGCUGGGCAACAUUCCGAGGGGACCGUCCCCUCAGUAAUGGCGAAGGGGACCCA	0.807
GGCCGGCAUGGUCCCAGCCUCCUCGCUGGCGCCGGCUGGGCAACAUUCCGAGGGGACCGUCCCCUUGGUAAUGGCGAAUGGGACUCA	0.888

Variant	self-cleavage
GGCCGGCAUGGUCCCAGCCUCCUCGCUGGCGCCGGCUGGGCAACAUUCCGAGGGGACCGUCCCCUUGGUAAUGGCGAAUGGGACGCA	0.923
GGCCGGCAUGGUCCCAGCCUCCUCGCUGGCGCCGGCUGGGCAACAUUCCGAGGGGACCGUCCCCUUGGUAAUGGCGAAUGCGACCCA	0.277
GGCCGGCAUGGUCCCAGCCUCCUCGCUGGCGCCGGCUGGGCAACAUUCCGAGGGGACCGUCCCCUCCGUAGUGGCGAAUGGGACCCA	0.743
GGCCGGCAUGGUCCCAGCCUCCUCGCUGGCGCCGGCUGGGCAACAUUCCGAGGGGACCGUCCCCUUGGUAAUGGCGAAUGGGAACCA	0.909
GGCCGGCAUGGUCCCAGCCUCCUCGCUGGCGCCGGCUGGGCAACAUUCCGAGGGGACCGUCCCCUUGGUAAUGGCGAAUGGGAUCCA	0.683
GGCCGGCAUGGUCCCAGCCUCCUCGCUGGCGCCGGCUGGGCAACAUUCCGAGGGGACCGUCCCCUUGGUAAUGGCGAAUGGGACCGA	0.772
GGCCGGCAUGGUCCCAGCCUCCUCGCUGGCGCCGGCUGGGCAACAUUCCGAGGGGACCGUCCCCUUGGUAAUGGCGAAUGGGACCUA	1.15
GGCCGGCAUGGUCCCAGCCUCCUCGCUGGCGCCGGCUGGGCAACAUUCCGAGGGGACCGUCCCCUUCGUAAUGGCGAAUGGGACCCA	1.16
GGCCGGCAUGGUCCCAGCCUCCUCGCUGGCGCCGGCUGGGCAACAUUCCGAGGGGACCGUCCCCUUGGUAUUGGCGAAUGGGACCCA	0.936
GGCCGGCAUGGUCCCAGCCUCCUCGCUGGCGCCGGCUGGGCAACAUUCCGAGGGGACCGUCCCCUUGGUAAUGGCGAAUGGGCCCCA	0.298
GGCCGGCAUGGUCCCAGCCUCCUCGCUGGCGCCGGCUGGGCAACAUUCCGAGGGGACCGUCCCCUCAGUAAUGGCGGAUGGGACCCA	0.712
GGCCGGCAUGGUCCCAGCCUCCUCGCUGGCGCCGGCUGGGCAACAUUCCGAGGGGACCGUCCCCUCAGUAAUGGCGAAUGGGUCCCA	0.359
GGCCGGCAUGGUCCCAGCCUCCUCGCUGGCGCCGGCUGGGCAACAUUCCGAGGGGACCGUCCCCUUGGUCAUGGCGAAUGGGACCCA	0.712
GGCCGGCAUGGUCCCAGCCUCCUCGCUGGCGCCGGCUGGGCAACAUUCCGAGGGGACCGUCCCCUUGGUGAUGGCGAAUGGGACCCA	0.903
GGCCGGCAUGGUCCCAGCCUCCUCGCUGGCGCCGGCUGGGCAACAUUCCGAGGGGACCGUCCCCUUGGUUAUGGCGAAUGGGACCCA	0.919
GGCCGGCAUGGUCCCAGCCUCCUCGCUGGCGCCGGCUGGGCAACAUUCCGAGGGGACCGUCCCCUCAGUAAUGGCGAAUGGGAGCCA	0.369
GGCCGGCAUGGUCCCAGCCUCCUCGCUGGCGCCGGCUGGGCAACAUUCCGAGGGGACCGUCCCCUCAGUAAUGGCGAAUGGGAUCCA	0.658
GGCCGGCAUGGUCCCAGCCUCCUCGCUGGCGCCGGCUGGGCAACAUUCCGAGGGGACCGUCCCCUCAGUAAUGGCGAAUGGGAACCA	0.831
GGCCGGCAUGGUCCCAGCCUCCUCGCUGGCGCCGGCUGGGCAACAUUCCGAGGGGACCGUCCCCUGGGCAAUGGCGAAUGGGACCCA	0.898
GGCCGGCAUGGUCCCAGCCUCCUCGCUGGCGCCGGCUGGGCAACAUUCCGAGGGGACCGUCCCCUCCGUAAUGGCGAAUGGGAGCCA	0.499
GGCCGGCAUGGUCCCAGCCUCCUCGCUGGCGCCGGCUGGGCAACAUUCCGAGGGGACCGUCCCCUCCGUAAUGGCGAAUGGGAUCCA	0.523
GGCCGGCAUGGUCCCAGCCUCCUCGCUGGCGCCGGCUGGGCAACAUUCCGAGGGGACCGUCCCCUGGGUAAUGGCGAAUAGGACCCA	0.338

Variant	self-cleavage
GGCCGGCAUGGUCCCAGCCUCCUCGCUGGCGCCGGCUGGGCAACAUUCCGAGGGGACCGUCCCCUCCGUAACGGCGAAUGGGACCCA	0.147
GGCCGGCAUGGUCCCAGCCUCCUCGCUGGCGCCGGCUGGGCAACAUUCCGAGGGGACCGUCCCCUCCGUAAAGGCGAAUGGGACCCA	0.682
GGCCGGCAUGGUCCCAGCCUCCUCGCUGGCGCCGGCUGGGCAACAUUCCGAGGGGACCGUCCCCUCCGUAAUGGCGAAUGGGACCCA	0.976
GGCCGGCAUGGUCCCAGCCUCCUCGCUGGCGCCGGCUGGGCAACAUUCCGAGGGGACCGUCCCCUCAGUAAUGGCGAAUGGGACCCA	0.967
GGCCGGCAUGGUCCCAGCCUCCUCGCUGGCGCCGGCUGGGCAACAUUCCGAGGGGACCGUCCCCUCUGUAAUGGCGAAUGGGACCCA	0.999
GGCCGGCAUGGUCCCAGCCUCCUCGCUGGCGCCGGCUGGGCAACAUUCCGAGGGGACCGUCCCCUCAGUAAUGCCGAAUGGGACCCA	0.132
GGCCGGCAUGGUCCCAGCCUCCUCGCUGGCGCCGGCUGGGCAACAUUCCGAGGGGACCGUCCCCUCAGUAAUGACGAAUGGGACCCA	0.403
GGCCGGCAUGGUCCCAGCCUCCUCGCUGGCGCCGGCUGGGCAACAUUCCGAGGGGACCGUCCCCUCAGUAAUCGCGAAUGGGACCCA	0.13
GGCCGGCAUGGUCCCAGCCUCCUCGCUGGCGCCGGCUGGGCAACAUUCCGAGGGGACCGUCCCCUCAGUAAUUGCGAAUGGGACCCA	0.227
GGCCGGCAUGGUCCCAGCCUCCUCGCUGGCGCCGGCUGGGCAACAUUCCGAGGGGACCGUCCCCUUGGUAAUGACGAAUGGGACCCA	0.451
GGCCGGCAUGGUCCCAGCCUCCUCGCUGGCGCCGGCUGGGCAACAUUCCGAGGGGACCGUCCCCUCCGUAAUGGCGAAUGGGGCCCA	0.597
GGCCGGCAUGGUCCCAGCCUCCUCGCUGGCGCCGGCUGGGCAACAUUCCGAGGGGACCGUCCCCUUGGUAAAGGCGAAUGGGACCCA	0.525
GGCCGGCAUGGUCCCAGCCUCCUCGCUGGCGCCGGCUGGGCAACAUUCCGAGGGGACCGUCCCCUUGGUAACGGCGAAUGGGACCCA	0.518
GGCCGGCAUGGUCCCAGCCUCCUCGCUGGCGCCGGCUGGGCAACAUUCCGAGGGGACCGUCCCCUCAGUAACGGCGAAUGGGACCCA	0.539
GGCCGGCAUGGUCCCAGCCUCCUCGCUGGCGCCGGCUGGGCAACAUUCCGAGGGGACCGUCCCCUCUGUAAUGGCGACUGGGACCCA	0.223
GGCCGGCAUGGUCCCAGCCUCCUCGCUGGCGCCGGCUGGGCAACAUUCCGAGGGGACCGUCCCCUCUGUCAUGGCGAAUGGGACCCA	0.987
GGCCGGCAUGGUCCCAGCCUCCUCGCUGGCGCCGGCUGGGCAACAUUCCGAGGGGACCGUCCCCUCCGUAAUGGCGAAUGGGACCAA	0.972
GGCCGGCAUGGUCCCAGCCUCCUCGCUGGCGCCGGCUGGGCAACAUUCCGAGGGGACCGUCCCCUCCGUAAUGGCGAAUGGGACCUA	0.979
GGCCGGCAUGGUCCCAGCCUCCUCGCUGGCGCCGGCUGGGCAACAUUCCGAGGGGACCGUCCCCUCACUAAUGGCGAAUGGGACCCA	0.707
GGCCGGCAUGGUCCCAGCCUCCUCGCUGGCGCCGGCUGGGCAACAUUCCGAGGGGACCGUCCCCUCAGUAGUGGCGAAUGGGACCCA	1.05
